The results in this text go back to US20050079613A1, “Downregulation of cell surface glycoproteins by a family of human ubiquitin ligases” (Oregon Health & Science University, priority 2002, published 2005).

The assay has as its system Fas (CD95), MHC I, HLA-A2.1, CD4, transferrin receptor, B7.1. The assay is described as follows: Surface glycoprotein panel on transfected HeLa cells, flow cytometry. It is filed as cell-based, human. The following applies: HeLa cells transfected with MARCH plasmid. The method, then: Flow cytometry. Cells were removed from tissue culture dishes with 0.05% Trypsin-EDTA (Invitrogen), washed with ice-cold PBS, and incubated with appropriate antibody for 30 minutes at 4° C. The cells were washed with ice-cold PBS and either resuspended in ice-cold PBS or incubated with PE-conjugated anti-mouse secondary antibody (DAKO) and washed again before analysis with a BD Biosciences (San Jose, Calif.) FACScalibur flow cytometer.
The ability to downregulate MHC I is common to KSHV-K3, KSHV-K5, MHV68-K3 and MV-M153R (Coscoy and Ganem, 2000, supra; Guerin et al., 2002, supra; Ishido et al., 2000b supra; Stevenson et al., 2000, supra). Additional substrates are ICAM-1 and B7.2 (but not B7.1) for KSHV-K5, as well as CD95 and CD4 for M153R (Coscoy and Ganem, 2001, supra; Guerin et al., 2002, supra; Ishido et al., 2000a, supra; Mansouri et al., 2003, supra). Since only low copy numbers were detected in HeLa cells for transcripts corresponding to each of the MARCH-proteins (FIG. 7C, and data not shown), HeLa cells were transfected with expression plasmids for MARCH-I, II, III, IV, V and VIII. Surface expression of selected glycoproteins was monitored upon transfection. […] Surface expression of the respective markers was analyzed by flow cytometry. […]
A general note: In flow cytometry, cells or beads pass a laser one at a time.

B1: MARCH-V: four-transmembrane human RING-CH protein, SEQ ID NOS:47 and 58 (protein, listed as Homo sapiens)
chain: MPDQALQQMLDRSCWVCFATDEDDRTAEWVRPCRCRGSTKWVHQACLQRWVDEKQRGNSTARVACPQCNAEYLIVFPKLGPVVYVLDLADRLISKACPFAAAGIMVGSIYWTAVTYGAVTVMQVVGHKEGLDVMERADPLFLLIGLPTIPVMLILGKMIRWEDYVLRLWRKYSNKLQILNSIFPGIGCPVPRIPAEANPLADHVSATRILCGALVFPTIATIVGKLMFSSVNSNLQRTILGGIAFVAIKGAFKVYFKQQQYLRQAHRKILNYPEQEEA
Turning to B1, the “reduction in surface levels of any of the glycoproteins of the panel” value is given as “No reduction in surface levels”.
